Legend:
[1] = biological target: Pfs25-IMX313-CTag (Plasmodium falciparum) (UniProt P13829); experiment: non-reducing SDS-PAGE; Coomassie-stained gel, non-reduced against reduced sample
[2] = biological target: Pfs25-IMX313-CTag (Plasmodium falciparum) (UniProt P13829); experiment: SEC
SpyCatcher-AP205 = experiment: reducing SDS-PAGE of the covalent conjugate

Pfs25-IMX313-CTag (from UniProt P13829 22-193)
stoichiometry N [1]: 7 | stoichiometry N [2]: 7

Pfs25-SpyTag-CTag (from UniProt P13829 22-193)
percent coupling (coat protein molecules linked to Pfs25-SpyTag) (SpyCatcher-AP205): 100%

— publication PMC5476561
